Data as given in the Human Domainome abundance scans (Beltran et al. 2025).
± gives the uncertainty stated by the source.

B1: Homeobox protein cut-like 1, residues 941 to 1008; numbered along this chain, P39880 (parent)
chain: QEVDTIELTRQVKEKLAKNGICQRIFGEKVLGLSQGSVSDMLSRPKPWSKLTQKGREPFIRMQLWLNG

Variants of: B1
Experiment: abundance fitness (aPCA) (normalised: wild type 0, dead -1); higher = more abundant; growth selection in yeast, the domain comes from the species named
Settings: Homo sapiens

Variant	abundance fitness
QEVDTIELTRQVKEKLAKNGICQRIFGEKVLGLSQGSVSDMLSRPKPWSKLTQKGREPFSRMQLWLNG [I60S]	-0.141 ± 0.062
QEVDTIELTRQVKEKLAKNGICQRIFGEKVLGLSQGSVSDMLSRPKPWSKLTQKGREPFNRMQLWLNG [I60N]	-0.051 ± 0.094
QEVDTIELTRQVKEKLAKNGICQRIFGEKVLGLSQGSVSDMLSRPKPWSKLTQKGREPFTRMQLWLNG [I60T]	-0.008 ± 0.079
QEVDTIELTRQVKEKLAKNGICQRIFGEKVLGLSQGSVSDMLSRPKPWGKLTQKGREPFIRMQLWLNG [S49G]	-0.133 ± 0.069
QEVDTIELTRQVKEKLAKNGICQRIFGEKVLGLSQGSVSDMLSRPKPWWKLTQKGREPFIRMQLWLNG [S49W]	-0.198 ± 0.071
VEVDTIELTRQVKEKLAKNGICQRIFGEKVLGLSQGSVSDMLSRPKPWSKLTQKGREPFIRMQLWLNG [Q1V]	-0.201 ± 0.088
QEVDTIELTRQVKEKLAKNGICQRIFDEKVLGLSQGSVSDMLSRPKPWSKLTQKGREPFIRMQLWLNG [G27D]	-0.545 ± 0.094
QEVDTIELTRQVKEKLAKNGICQRIFGEKVLGLSQGCVSDMLSRPKPWSKLTQKGREPFIRMQLWLNG [S37C]	0.066 ± 0.065
QEVDTIELTRQVKEKLAKNGICQRIFGEKVLGLSQGYVSDMLSRPKPWSKLTQKGREPFIRMQLWLNG [S37Y]	-0.173 ± 0.08
QEVDTIELTRQVKEKLAKNGICQRIFGEKVLGLSQGSVSDMLSRPKPWSKLTQKGREPFIRMQMWLNG [L64M]	-0.049 ± 0.067
QEVDTIELTRQVKEKLASNGICQRIFGEKVLGLSQGSVSDMLSRPKPWSKLTQKGREPFIRMQLWLNG [K18S]	-0.102 ± 0.057
QEVDTIELTRQVKEKLAGNGICQRIFGEKVLGLSQGSVSDMLSRPKPWSKLTQKGREPFIRMQLWLNG [K18G]	-0.226 ± 0.056
QEVDTIELTRQVKEKLAKNGICQRIFGEKVLGLSQGSVSDMLSRPKPWSKLTQKGREPFIRMQLWLAG [N67A]	-0.03 ± 0.085
QEVDTIELTRQVKEKLAKNGICQRIFGEKVLGLSQGSVSDMLSRPKPWSKLTQKGREPFIRMQLWLTG [N67T]	-0.041 ± 0.07
QEVDTIELTRQVKEKLAKNGICQRIFGEKVLGLSQKSVSDMLSRPKPWSKLTQKGREPFIRMQLWLNG [G36K]	-0.026 ± 0.09
QEVDTIELTRQVKEKLAKNGICQRIFGEKVLGLSQESVSDMLSRPKPWSKLTQKGREPFIRMQLWLNG [G36E]	0.107 ± 0.084
QEVDTIELTRQVKEKLAKNGICQRIFGEKVLGLSQLSVSDMLSRPKPWSKLTQKGREPFIRMQLWLNG [G36L]	-0.025 ± 0.046
QEVDTIELTRQVKEKLAKNGICQRIFGEKVGGLSQGSVSDMLSRPKPWSKLTQKGREPFIRMQLWLNG [L31G]	-0.256 ± 0.057
QEVDTIELTRQVKEKLAKNGICQRIFGEKVHGLSQGSVSDMLSRPKPWSKLTQKGREPFIRMQLWLNG [L31H]	-0.313 ± 0.1
QEVDTIELTRQVKEKLAKNGICQRIFGEKVNGLSQGSVSDMLSRPKPWSKLTQKGREPFIRMQLWLNG [L31N]	-0.319 ± 0.098

Variant	abundance fitness
QEVDTIELTRQVKEKLAKNGICQRIFGEKVLGLSIGSVSDMLSRPKPWSKLTQKGREPFIRMQLWLNG [Q35I]	-0.116 ± 0.089
QEVDTIELTRQVKEKLAKNGICQRIFGEKVLGLSTGSVSDMLSRPKPWSKLTQKGREPFIRMQLWLNG [Q35T]	0.01 ± 0.067
QEVDTIELTRQVKEKLAKNGICQRIFGEKVLGLSGGSVSDMLSRPKPWSKLTQKGREPFIRMQLWLNG [Q35G]	-0.003 ± 0.059
QEVDTIELTRQVKEKLAKNGICQRIFGEKVLGLSQGSVSDMLSRPKPWSKLTQKGREPFIRMQLWLNW [G68W]	-0.624 ± 0.091
QEVDTIELTRQVKEKLAKNGICYRIFGEKVLGLSQGSVSDMLSRPKPWSKLTQKGREPFIRMQLWLNG [Q23Y]	-0.162 ± 0.18
QMVDTIELTRQVKEKLAKNGICQRIFGEKVLGLSQGSVSDMLSRPKPWSKLTQKGREPFIRMQLWLNG [E2M]	-0.09 ± 0.029
QEVDTIELTRQVKEKLAKNGICQRIFGEKVLGLSQGSVSDMLSRPKHWSKLTQKGREPFIRMQLWLNG [P47H]	-0.133 ± 0.11
QEVDTIELTRQVKEKLAKNGICQRIFGEKVLGLSQGSVSDMLSRPKNWSKLTQKGREPFIRMQLWLNG [P47N]	-0.371 ± 0.11
QEVDTIELTRQVKEKLAKNGICQRIFGEKVLGLSQGSVSDMLSRPKYWSKLTQKGREPFIRMQLWLNG [P47Y]	-0.25 ± 0.11
QEVDTIELTRQVKEKLAKNGICQRIFGEKVLGLSQGSVSDMLSRPKPWSKLTQKGREPPIRMQLWLNG [F59P]	-0.833 ± 0.11
QEIDTIELTRQVKEKLAKNGICQRIFGEKVLGLSQGSVSDMLSRPKPWSKLTQKGREPFIRMQLWLNG [V3I]	0.19 ± 0.091
QEVDTIELTRQVKEKLAKNGICQRIFGEKVLGLSQGSVSDMLSREKPWSKLTQKGREPFIRMQLWLNG [P45E]	-0.526 ± 0.13
QEVDTIELTRQVKEKLAKNGICQRIFGEKVLGMSQGSVSDMLSRPKPWSKLTQKGREPFIRMQLWLNG [L33M]	-0.045 ± 0.068
QEVDTIELTRQVKEKLAKNGICQRIFGEKVLGWSQGSVSDMLSRPKPWSKLTQKGREPFIRMQLWLNG [L33W]	-0.115 ± 0.076
QEVDTIELTRQVKEKLAKNGICQRIFGEKVLGLSQGSVSDMLSRPKPWSKLHQKGREPFIRMQLWLNG [T52H]	-0.394 ± 0.16
QEVDTIELTRQVKEKLAKNGICQRIFGEKVLGLSQGSVSDMLSRPKPWSKLMQKGREPFIRMQLWLNG [T52M]	-0.157 ± 0.082
QEVDTIELTRQVKEKLAKNGICQRIFGEKVLGLSQGSVSDMLMRPKPWSKLTQKGREPFIRMQLWLNG [S43M]	0.079 ± 0.078
QEVDTIELTRQVKEKLAKNGICQRIFGEKVLGLSQGSVSDMLSRPKPWSKLTQKGREGFIRMQLWLNG [P58G]	-0.201 ± 0.081
QEVDTIELTRQVKEKLAKNGICQRIFGEKVLGLSQGSVSDMLSRPKPWSKLTQKGREIFIRMQLWLNG [P58I]	0.117 ± 0.083
